Assay results published in patent publication US20030235534A1, “Methods and compositions for radioimmunotherapy of brain and CNS tumors” (priority 2002, published 2003).
*1 amine or outer side, *2 acyl side, *3 side chain or, on linkers, in order; H or OH if unused. Where a SMILES comes first, the peptide text is derived from it. Side-chain parts run from the residue outwards. [ ]: non-standard residue; d: D form. The star is where a group is joined. DOTA = O=C(O)CN1CCN(CC(=O)O)CCN(CC(=O)*)CCN(CC(=O)O)CC1; NH(2-(imidazol-4-yl)ethyl) = c1ncc(CCN*)[nH]1; Suc = O=C(CCC(=O)[*:2])[*:1]

What was measured:
[1] = test system: glioblastome multiforme; experiment: Treatment of a brain cancer patient with premixed bispecific antibody-mediated radioimmunotherapy using a beta-emitting radionuclide; conditions: 1:1 molar mixture with bispecific antibody of Example 1; 12 mCi Y-90, 10 mg antibody, into reservoir, 4 days post surgery
Protocol: A patient with recently-diagnosed glioblastome multiforme in their left hemisphere, which is limited to a focal lesion, undergoes a gross total resection, with placement of a Rickham reservoir and catheter into the surgically-created resection cavity. Placement of the catheter is confirmed by an MRI scan 24 h later. […] The reservoir and catheter are flushed after the antibody injection.

[2] = test system: glioblastoma multiforme; experiment: Treatment of a brain cancer patient with pretargeted bispecific antibody-mediated radioimmunotherapy using an alpha-emitting radionuclide (hapten into surgical cavity)
[3] = test system: inoperable brain tumor in the pons; experiment: Treatment of a brain cancer patient with pretargeted bispecific antibody-mediated radioimmunotherapy using an alpha-emitting radionuclide (intravenous)
Protocol: This preparation has an In-111 label to confirm targeting to the brain tumor by gamma camera imaging 24 h later. After two more days, to allow for adequate localization of the bispecific antibody to the tumor and clearance from the body, the Ac-225-IMP 241 of example 7, above, is also injected intravenously, at a dose of 1 mCi.

[4] = 1 mCi i.v. after 30 mg i.v. humanized anti-tenascin x anti-HSG bispecific antibody, 8 weeks later

For `NC(=O)[C@H](CCCCNC(=O)CNC(=O)CCC(=O)NCCc1cnc[nH]1)NC(=O)[C@@H](Cc1ccc(O)cc1)NC(=O)[C@H](CCCCNC(=O)CNC(=O)CCC(=O)NCCc1cnc[nH]1)NC(=O)[C@H](Cc1ccccc1)NC(=O)CN1CCN(CC(=O)O)CCN(CC(=O)O)CCN(CC(=O)O)CC1` (90Y complex, metal not drawn) [Y-90-IMP 241] ({DOTA}-FK([Gly-Suc-NH(2-(imidazol-4-yl)ethyl)])[dY]K([Gly-Suc-NH(2-(imidazol-4-yl)ethyl)])-NH2), the “tolerability of radioimmunotherapy procedure” value [1] was “tolerates the radioimmunotherapy procedure well”.
For `NC(=O)[C@H](CCCCNC(=O)CNC(=O)CCC(=O)NCCc1cnc[nH]1)NC(=O)[C@@H](Cc1ccc(O)cc1)NC(=O)[C@H](CCCCNC(=O)CNC(=O)CCC(=O)NCCc1cnc[nH]1)NC(=O)[C@H](Cc1ccccc1)NC(=O)CN1CCN(CC(=O)O)CCN(CC(=O)O)CCN(CC(=O)O)CC1` [Ac-225-IMP 241, metal not drawn] ({DOTA}-FK([Gly-Suc-NH(2-(imidazol-4-yl)ethyl)])[dY]K([Gly-Suc-NH(2-(imidazol-4-yl)ethyl)])-NH2), the “adverse events from therapy” value ([2]; 1 mCi into surgical cavity two days after 30 mg i.v. humanized anti-tenascin x anti-HSG bispecific antibody) was “does not experience any adverse events”, the “granulocytes (ANC) and platelets” value [3, 4] was “within the normal range” and the hematological toxicity [3, 4] was “no evidence of hematological toxicity”.
In the case of `Cn1nnc2c(C(N)=O)ncn2c1=O` [temozolomide, reference compound], the “tolerability of chemotherapy regimen” value ([2]; given after radioimmunotherapy) was “tolerated well” and the “additional reduction of the tumor” value ([3]; temozolomide therapy given three months after the 3-month follow-up of radioimmunotherapy) was 25%.
